# In article PMC5120205:
# B1: D4-10-N1 antibody (human IgG) H:Y52A; H:F53A (protein)
# chain 1: QVQLQESGPGLVKPSETLSLICTVSGGSISSSSYYWGWIRQTPERNLEWIGIIAASGTTYYNPSLQSRVSMSLDRSTNRFSLRLSSVTAADTAIYYCAKPKSRDRGGPGDDYFGMDVWGQGIMVTVSS
# chain 2: DIQLTQSPSFLSASVADRVTITCRASQAVRSSLAWYQQKPGKAPQLLIYSASTLENGVSSRFSGSGPGTEFTLTISSLQPEDVGTYYCQQLNTYPFTFGPGTKVEIK
# Biological target: recombinant full-length IsdB, Q2FHV2
# Assay: ELISA
# Details: chain shown with the change
binder,measurement,value
B1,percent of parent,9%
